Assay results as given in patent US12460006B2, “Antibodies against integrin alpha 11 beta 1” (Momenta Pharmaceuticals, Inc., priority 2019, dated 2025).
Entries after “also recorded” stand apart in the source; their conditions may differ.

T1: I domain of α11β1 (Homo sapiens, UniProt Q9UKX5)
T1 construct: An in-house generated I domain of α11β1 was used; made in house
T1 sequence (Q9UKX5 164-345 limits assumed): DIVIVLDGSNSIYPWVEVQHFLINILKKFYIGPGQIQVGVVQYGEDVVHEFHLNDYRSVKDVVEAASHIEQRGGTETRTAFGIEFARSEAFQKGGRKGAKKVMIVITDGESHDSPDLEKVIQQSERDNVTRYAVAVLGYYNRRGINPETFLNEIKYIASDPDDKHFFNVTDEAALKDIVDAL


How the values were obtained:
[1] = system: CHO-K1 cells expressing human α11; experiment: Cell adhesion inhibition (xCelligence), type I collagen; assay type: cell-based; details: for inhibition of cell adhesion to type I collagen: CHO-K1 hu α11 cells; for Inhibition of CHO-K1 adhesion to collagen: Yes/No
Method: 0.6×10^6 cells/mL were incubated with each antibody at a range of concentrations for 20 minutes at 37° C. E-Plate VIEW 96 PET plate coated with 100 ng/mL type I collagen or PBS overnight at room temperature was blocked in 3% BSA for 1 house at room temperature. After washing the plate with PBS, cell and antibody mixture was added to the wells and the plate was places into an xCelligence machine. Cell adhesion was recorded over 6 hours. The time point of maximum cell adhesion was used for comparison relative to control.
A CHO-K1 hu α11 cell line was used to assess the ability of mAbs to block α11β1-mediated binding to type I collagen. […] In the “Untreated” condition, cells were plated on type I collagen but no antibody was added and in the “Uncoated” condition, cells were seeded onto BSA-coated wells containing no type I collagen. Statistics were performed using one-way ANOVA followed by Dunnett's multiple comparisons test. […] Therefore, it is possible that these mAbs bind on an α11β1 domain that keeps the integrin in a low or intermediate affinity state. […] Nine human mAbs were also tested for their ability to inhibit the binding of human CHO-α11 cells to type I collagen.

[2] = system: Human Pulmonary Fibroblasts; experiment: Fibroblast-to-Myofibroblasts Transition (FMT), αSMA expression; assay type: cell-based; details: for inhibition of αSMA expression / FMT: TGFβ-induced FMT; for Inhibition of FMT: Yes/No
Method: Human Pulmonary Fibroblasts (ScienCell) were cultured in complete Fibroblast Growth Medium (ScienCell) until 80% confluent. Cells were washed and harvested using Accutase. Cells were seeded onto tissue culture-treated 96 well plates at 20,000 cells/well in complete Fibroblast Growth Medium. After 24 hours, cells were washed and starved in serum reduced medium for an additional 24 hours. After starvation, cells were treated with TGFβ-1 (R&D Systems) with or without anti-α11 antibodies. A polyclonal rabbit anti-human α11 antibody was used as a positive control. Appropriate IgG isotype controls were also included. After 48 hours, cells were harvested, fixed, permeabilized and stained with AlexaFluor488 Labeled Anti-αSMA (α-smooth muscle actin) (Invitrogen). Cells were acquired on a FACS Verse (Benton Dickson) to determine expression levels of αSMA. Data were analyzed by gating on single cells and determining the geometric Mean Fluorescence Intensity (gMFI) in the FITC channel for each sample. gMFI for each sample was normalized to the untreated control and presented as % inhibition.
In addition to the binding abilities described above, it is important for an anti-α11β1 antibody to inhibit the fibroblast-to-myofibroblast transition (FMT). It is now appreciated that myofibroblasts are a heterogeneous cell population, existing in different activation states, with the main function of producing and contracting collagen extracellular matrix (ECM). FMT is a multi-step event that is controlled by a changing mechanical environment in tissues undergoing repair. TGFβ is one of the potent factors that potentiates this process and alpha smooth muscle actin (αSMA) is one of the main markers that becomes overexpressed when fibroblasts are undergoing the transition to becoming myofibroblasts. The presence of αSMA enhances fibroblast contraction and guides myofibroblast activation through an intracellular feedback loop. Because αSMA is the main molecular marker of myofibroblasts, the ability of the novel anti-α11β1 mAbs to inhibit αSMA expression in TGFβ-induced FMT was tested.

I domain of α11β1 = target: T1, I domain of α11β1; experiment: ELISA binding to in-house generated I domain of α11β1; details: for I Domain binding: Yes/No
Method: (§1) 0.25 μg/mL of target antigen (recombinant human or mouse α11β1) was plated in a 96-well plate over night at 4° C. Plates were washed (PBS with 0.1% Tween-20), blocked (PBS with 2% BSA and 0.05% Tween-20) for 1 hour at room temperature and incubated with a range of antibody concentrations for 1 hour at room temperature. Subsequently, plates were washed and incubated with biotinylated anti-rabbit/mouse/human IgG in a 1:1000 dilution buffer and incubated for 1 hour at room temperature. After washing the plates, Streptavidin HRP was added at 1:200 in dilution buffer and incubated for 1 hour at room temperature. Ultra TMB ELISA substrate solution was added and the plates incubated for 5 minutes on a plate shaker. The reaction was stopped by adding stop solution to each well and plates were read at 450 nm.
22 Data was also collected to determine whether antibodies of interest bind to the I domain of α11β1. An in-house generated I domain of α11β1 was used. […] Mouse antibodies 10-F23, 10-L15, 7-O8, 6-A12, 9-G05 and 9-E16 and rabbit antibodies 7-H12 and 2-D3 were also tested for binding against the in-house generated α11031 domain. FIGS. 3A and 3B show graphs illustrating binding data from exemplary mAbs.

mouse α11β1 = mouse α11β1 (Mus musculus, UniProt P61622); experiment: ELISA binding to recombinant mouse α11β1; details: for Murine α11β1 ELISA: binding Yes/No
Method: as §1

human α11β1 = human α11β1 (Homo sapiens, UniProt Q9UKX5); experiment: ELISA binding to recombinant human α11β1; details: binding Yes/No
Method: as §1

myofibroblasts (MF) = experiment: FACS antibody binding to myofibroblasts; parameters: species or system human; details: binding Yes/No
Method: Human Pulmonary Fibroblasts (ScienCell) were cultured in complete Fibroblast Growth Medium (ScienCell) until 80% confluent in T-150 flasks. Cells were washed and harvested using Accutase. Cells were seeded into T-150 flasks at 7,500 cells/cm^2 in complete FGF and cultured for 72 hours. Cells were then washed and starved in serum reduced medium for 24 hours. After starvation, cells were treated with TGFβ-1 (R&D Systems) for 72 hours. Cells were harvested using Accutase and seeded in 96-well conical bottom plates. Cells were blocked with Heat Inactived Fetal Bovine Serum (Gibco) for 30 minutes at 4° C. Cells were then incubated with anti-α11 antibodies at the doses described in each figure for 30 minutes at 4° C. A human anti-α11 antibody (Creative BioLabs) was included as a positive control as well as the appropriate IgG isotype negative controls. Cells were washed twice and incubated with PE conjugated secondary antibodies specific to the IgG class of the anti-α11 antibodies being tested for 30 minutes at 4° C. Cells were washed twice and fixed in 1% PFA for 30 minutes. Cells were acquired on a FACS Verse […]. Data were analyzed by gating on single cells and determining the geometric Mean Fluorescence Intensity (gMFI) in the PE channel for each sample.
Binding to a physiologically relevant primary human cell type was also tested. Human pulmonary fibroblasts (HPF) and TGFβ treatment were used to induce a fibroblast-to-myofibroblast transition (FMT), giving rise to myofibroblasts (MF). […] Additionally, HPFs express α11 and α2β1, other collagen binding receptors, which means that HPFs can be to test cross-reactivity of antibodies of interest.

Sequence of human α11β1 (Q9UKX5 23-1141 limits assumed): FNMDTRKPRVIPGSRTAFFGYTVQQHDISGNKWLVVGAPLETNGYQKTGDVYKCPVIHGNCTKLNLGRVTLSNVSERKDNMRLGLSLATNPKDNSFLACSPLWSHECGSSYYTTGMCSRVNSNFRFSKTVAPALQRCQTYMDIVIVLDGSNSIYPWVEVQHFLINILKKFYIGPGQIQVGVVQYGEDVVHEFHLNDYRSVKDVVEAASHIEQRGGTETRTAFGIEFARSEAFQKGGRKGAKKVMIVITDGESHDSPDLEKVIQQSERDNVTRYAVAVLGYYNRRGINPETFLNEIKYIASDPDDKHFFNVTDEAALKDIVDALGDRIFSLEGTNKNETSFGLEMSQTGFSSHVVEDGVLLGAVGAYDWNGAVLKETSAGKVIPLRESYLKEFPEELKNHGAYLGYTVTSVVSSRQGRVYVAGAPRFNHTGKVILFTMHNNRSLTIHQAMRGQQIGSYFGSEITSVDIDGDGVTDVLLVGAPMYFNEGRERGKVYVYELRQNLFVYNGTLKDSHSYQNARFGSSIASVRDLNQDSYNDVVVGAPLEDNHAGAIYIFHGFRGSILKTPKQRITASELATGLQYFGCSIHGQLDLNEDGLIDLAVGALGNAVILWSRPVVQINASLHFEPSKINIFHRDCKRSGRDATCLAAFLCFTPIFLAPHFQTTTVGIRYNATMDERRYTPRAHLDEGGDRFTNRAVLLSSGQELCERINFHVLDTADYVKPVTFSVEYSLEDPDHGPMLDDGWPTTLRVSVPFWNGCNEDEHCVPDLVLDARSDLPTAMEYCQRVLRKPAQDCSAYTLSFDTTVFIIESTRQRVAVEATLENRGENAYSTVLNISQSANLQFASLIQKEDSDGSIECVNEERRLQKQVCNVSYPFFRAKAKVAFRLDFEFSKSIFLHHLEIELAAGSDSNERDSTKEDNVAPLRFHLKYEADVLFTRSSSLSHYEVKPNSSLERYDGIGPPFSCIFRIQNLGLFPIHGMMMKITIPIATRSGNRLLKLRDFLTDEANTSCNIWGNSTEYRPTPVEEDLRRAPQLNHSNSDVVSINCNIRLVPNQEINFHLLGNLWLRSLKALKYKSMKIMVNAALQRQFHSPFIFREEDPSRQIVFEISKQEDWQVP
Sequence of human α11β1 (P05556 21-728 partner limits assumed): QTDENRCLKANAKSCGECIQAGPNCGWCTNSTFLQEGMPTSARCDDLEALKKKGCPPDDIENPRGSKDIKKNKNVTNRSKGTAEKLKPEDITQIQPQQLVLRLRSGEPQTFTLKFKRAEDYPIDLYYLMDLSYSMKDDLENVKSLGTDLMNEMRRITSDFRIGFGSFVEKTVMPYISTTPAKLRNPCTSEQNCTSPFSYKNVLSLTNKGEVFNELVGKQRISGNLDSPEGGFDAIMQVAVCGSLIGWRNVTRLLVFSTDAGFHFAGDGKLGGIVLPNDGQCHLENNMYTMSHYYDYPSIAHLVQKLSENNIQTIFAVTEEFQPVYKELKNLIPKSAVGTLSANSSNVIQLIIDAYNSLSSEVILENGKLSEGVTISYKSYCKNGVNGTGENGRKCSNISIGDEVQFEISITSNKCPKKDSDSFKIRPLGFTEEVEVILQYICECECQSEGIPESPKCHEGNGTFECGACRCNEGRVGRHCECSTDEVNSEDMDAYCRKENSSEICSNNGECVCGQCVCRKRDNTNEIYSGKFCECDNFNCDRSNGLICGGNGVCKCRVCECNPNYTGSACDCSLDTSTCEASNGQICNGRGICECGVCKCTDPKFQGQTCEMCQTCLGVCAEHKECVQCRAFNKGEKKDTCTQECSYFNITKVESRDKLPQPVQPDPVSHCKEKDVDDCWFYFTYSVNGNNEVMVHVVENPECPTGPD
Sequence of mouse α11β1 (P61622 23-1141 limits assumed): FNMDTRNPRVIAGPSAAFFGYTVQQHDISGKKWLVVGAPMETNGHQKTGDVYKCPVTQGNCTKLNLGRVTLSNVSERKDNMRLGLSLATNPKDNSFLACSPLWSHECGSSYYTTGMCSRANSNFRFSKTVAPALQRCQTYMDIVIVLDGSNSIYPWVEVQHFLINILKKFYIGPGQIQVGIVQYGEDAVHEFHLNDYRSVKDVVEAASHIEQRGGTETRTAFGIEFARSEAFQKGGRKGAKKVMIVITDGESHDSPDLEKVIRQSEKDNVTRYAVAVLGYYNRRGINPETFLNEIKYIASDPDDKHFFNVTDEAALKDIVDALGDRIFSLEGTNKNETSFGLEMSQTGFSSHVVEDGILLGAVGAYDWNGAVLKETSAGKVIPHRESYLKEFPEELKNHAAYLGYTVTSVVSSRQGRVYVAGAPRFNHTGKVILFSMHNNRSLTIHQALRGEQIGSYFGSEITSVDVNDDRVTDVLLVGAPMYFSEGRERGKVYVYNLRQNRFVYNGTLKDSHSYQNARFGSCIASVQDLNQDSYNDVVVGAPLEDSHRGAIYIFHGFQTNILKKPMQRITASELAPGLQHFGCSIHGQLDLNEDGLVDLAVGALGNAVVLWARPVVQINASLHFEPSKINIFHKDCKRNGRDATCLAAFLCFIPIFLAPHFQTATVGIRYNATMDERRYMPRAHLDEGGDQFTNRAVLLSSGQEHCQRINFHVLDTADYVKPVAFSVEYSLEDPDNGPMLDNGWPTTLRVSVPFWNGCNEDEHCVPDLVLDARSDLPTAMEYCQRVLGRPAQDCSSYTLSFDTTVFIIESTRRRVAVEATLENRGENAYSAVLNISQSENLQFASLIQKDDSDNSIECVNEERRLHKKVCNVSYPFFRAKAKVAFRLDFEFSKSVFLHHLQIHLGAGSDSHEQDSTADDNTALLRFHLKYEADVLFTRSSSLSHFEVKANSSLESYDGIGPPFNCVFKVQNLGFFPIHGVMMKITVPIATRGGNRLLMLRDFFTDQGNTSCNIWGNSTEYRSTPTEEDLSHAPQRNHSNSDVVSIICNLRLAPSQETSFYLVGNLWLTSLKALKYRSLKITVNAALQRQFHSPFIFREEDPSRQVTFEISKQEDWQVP
Sequence of mouse α11β1 (P09055 21-728 partner limits assumed): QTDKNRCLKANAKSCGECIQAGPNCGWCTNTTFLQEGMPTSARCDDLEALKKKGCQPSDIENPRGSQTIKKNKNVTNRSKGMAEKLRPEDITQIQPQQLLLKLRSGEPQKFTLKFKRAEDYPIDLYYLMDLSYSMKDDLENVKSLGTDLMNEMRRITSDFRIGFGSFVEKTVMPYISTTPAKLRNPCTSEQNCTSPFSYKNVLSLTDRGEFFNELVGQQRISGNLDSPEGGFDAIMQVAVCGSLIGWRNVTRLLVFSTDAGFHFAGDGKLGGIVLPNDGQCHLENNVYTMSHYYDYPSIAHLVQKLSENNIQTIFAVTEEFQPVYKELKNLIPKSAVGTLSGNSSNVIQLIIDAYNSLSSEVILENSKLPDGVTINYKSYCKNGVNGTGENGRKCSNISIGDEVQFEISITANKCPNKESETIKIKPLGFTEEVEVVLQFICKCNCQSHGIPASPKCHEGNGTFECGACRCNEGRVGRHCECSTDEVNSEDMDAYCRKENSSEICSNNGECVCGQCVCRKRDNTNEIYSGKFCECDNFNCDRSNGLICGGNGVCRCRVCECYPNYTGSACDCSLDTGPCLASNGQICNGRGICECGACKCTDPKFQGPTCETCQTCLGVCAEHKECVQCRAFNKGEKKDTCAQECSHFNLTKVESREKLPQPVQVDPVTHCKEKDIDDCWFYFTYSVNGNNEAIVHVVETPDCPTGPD

Molecule	inhibition of cell adhesion to type I collagen [1]	Inhibition of CHO-K1 adhesion to collagen [1]	inhibition of αSMA expression / FMT [2]	Inhibition of FMT [2]	I Domain binding (I domain of α11β1)	Murine α11β1 ELISA (mouse α11β1)	Human α11β1 ELISA (human α11β1)	MF FACS (myofibroblasts (MF))	I-domain binder (I domain of α11β1)	binding to mouse α11β1 (mouse α11β1)
8-J17: mouse anti-α11β1 mAb; VH SEQ ID NO: 113, VL SEQ ID NO: 114 (antibody, V domains shown) VH: QVQLQQSGAELAKPGASVKMSCKASGYTFTNYWMHWVKQRPGQGLEWIGYINPNNGYTEYNQRFKDKATLTADRSSTTAYMQLSSLTSEDSAVYYCARSDIITTDYWGQGTTLTVSS VL: DVVMTQTPLSLPVSLGDQASISCRSSQSLVYSNGNTYLHWYLQKPGQSPKLLIYKVSNRFSGVPDRFSGSGSGTDFTLKISRVEAEDLGVYFCSQSTHVPWTFGGGTKLEIK	did not block cell adhesion; also recorded: had effect on ligand binding	No	only inhibited FMT	Yes	No	No	Yes	Yes		
8-I14: mouse anti-α11β1 mAb; VH SEQ ID NO: 109, VL SEQ ID NO: 110 (antibody, V domains shown) VH: EVQLQQSGPELVKPGASVKKSCKASGYTFTDYYMHWVKQKPGQGLEWIGKIYPGSGNTHYNEKFKGKATLTADKSSSTAYMQLSSLTSEDSAVYFCATNYYGYRAMNYWGQGSSVTVSS VL: DIHLTQSPSSLSASLGERISLTCRASQDIYISLNWFQQKPDGTIKLLIYGTSSLDSGVPKRFSGSRSGSDYSLTISSLESEDFADYYCLQYASSPYTFGGGTKLEIK		No	only inhibited FMT	Yes	No	Yes	Yes	Yes		
9-G05: mouse anti-α11β1 mAb; VH SEQ ID NO: 103, VL SEQ ID NO: 104 (antibody, V domains shown) VH: EVQLQQSGPELVKPGASVKIPCKASGYTFPDYNMDWVKQSHGKSLEWIGYINPDNGGTIYNQKFKGKATLTVDKSSSTAYMELRSLTSEDTAVYYCARLDSSGYGYYAMDYWGQGTSVTVSS VL: DIVLTQSPASLAVSLGQRATISCRASESVDNYGISFMHWYQQKPGQPPKLLIYRASNLDSEIPARFSGSGSRTDFTLTIDPVETDDVATYYCQQSYKDPRTFGGGTKLEIK	significantly blocked cell adhesion; also recorded: decrease cell adhesion	Yes	FMT inhibitors	Yes	Yes	Yes	Yes	Yes	I domain binders; also recorded: I-domain binders; also recorded: bound the I domain	
9-E16: mouse anti-α11β1 mAb; VH SEQ ID NO: 111, VL SEQ ID NO: 112 (antibody, V domains shown) VH: EVQLQQSGPELVKPGASVKISCKASGYTFTDYYMHWVKQKPGQGLEWIGEIYPGSGNPYYNEKFKGKATLTADKSSSSAYMQLSSLTSEDSAVYFCARTSYGRVGTGFAYWGQGTLVTVSA VL: NFVMTQTPLSLPVSLGDQASISCRSSQSLLHSNGNTYLHWYLQKPGQSPKLLIYKVSNRFSGVPDRFSGSGSGTDFTLKINRVETEDLGIYFCSQSSHVPTFGAGTKLELK	significantly blocked cell adhesion; also recorded: decrease cell adhesion	Yes	FMT inhibitors	Yes	Yes	Yes	Yes	Yes	I domain binders; also recorded: I-domain binders; also recorded: bound the I domain	
16E10: rabbit anti-α11β1 mAb; heavy chain SEQ ID NO: 161, light chain SEQ ID NO: 162 (antibody) heavy: METGLRWLLLVAVLKGVQCQSLEESGGDLVKPGASLTLTCRVSGFSFSSSYYMCWVRQAPGKGLEWIACIGTTRGSTYYATWAKGRFTISKISSTTVTLQMTSLTDADTATYFCARDATGYRINTIGLYFNLWGPGTLVTVSSGQPKAPSVFPLAPCCGDTPSSTVTLGCLVKGYLPEPVTVTWNSGTLTNGVRTFPSVRQSSGLYSLSSVVSVTSSSQPVTCNVAHPATNTKVDKTVAPSTCSKPMCPPPELPGGPSVFIFPPKPKDTLMISRTPEVTCVVVDVSQDDPEVQFTWYINNEQVRTARPPLREQQFNSTIRVVSTLPIAHQDWLRGKEFKCKVHNKALPAPIEKTISKARGQPLEPKVYTMGPPREELSSRSVSLTCMINGFYPSDISVEWEKNGKAEDNYKTTPTVLDSDGSYFLYSKLSVPTSEWQRGDVFTCSVMHEALHNHYTQKSISRSPGK light: MDTRAPTQLLGLLLLWLPGARCAFELTQTPSSVEAAVGGTPTIKCQASQTIYSYLSWYQQKPGQPPKLLIYEASKLASGVPSRFSGSGSGTDYTLTISDLECADAATYYCQSYHGTASTEYNTFGGGTEVVVRGDPVAPTVLIFPPAADQVATGTVTIVCVANKYFPDVTVTWEVDGTTQTTGIENSKTPQNSADCTYNLSSTLTLTSTQYNSHKEYTCKVTQGTTSVVQSFNRGDC	inhibit both ligand binding and FMT	Yes	inhibit both ligand binding and FMT	Yes	No	No	Yes	Yes		does not bind mouse α11β1
